Experimental findings from PMC9023295, “NMR-derived secondary structure of the full-length Ox40 mRNA 3′UTR and its multivalent binding to the immunoregulatory RBP Roquin” (Nucleic Acids Research, 2022) are described below.

The target in data set [1] is T1, Roquin-1 coreROQ (mouse, UniProt Q4VGL6 171-326).
T1 sequence: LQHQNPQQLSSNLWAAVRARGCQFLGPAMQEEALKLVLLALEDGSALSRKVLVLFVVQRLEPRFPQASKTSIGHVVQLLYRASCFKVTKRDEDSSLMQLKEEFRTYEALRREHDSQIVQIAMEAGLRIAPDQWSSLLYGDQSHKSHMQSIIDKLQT
The data set is described as follows: EMSA. The settings on record: EMSA: 150 mM NaCl, 20 mM Tris pH 7.0, 2 mM TCEP, 1 mM MgCl2, 0.6 ug yeast tRNAPhe per 20 ul, 15 min, temperature not stated, gel in 1x TB. In general terms: In EMSA bound probe runs differently from free probe, usually more slowly.

Data set [2] addresses T2, Roquin-1 extROQ (mouse, UniProt Q4VGL6 89-404).
T2 sequence: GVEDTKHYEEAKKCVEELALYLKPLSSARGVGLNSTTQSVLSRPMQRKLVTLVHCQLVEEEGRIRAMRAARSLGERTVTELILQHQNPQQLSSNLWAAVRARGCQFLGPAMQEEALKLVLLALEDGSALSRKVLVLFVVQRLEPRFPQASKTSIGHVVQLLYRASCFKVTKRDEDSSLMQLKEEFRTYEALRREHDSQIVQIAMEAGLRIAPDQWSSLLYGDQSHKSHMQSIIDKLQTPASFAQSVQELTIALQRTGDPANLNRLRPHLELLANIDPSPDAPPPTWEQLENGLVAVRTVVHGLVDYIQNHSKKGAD
Kind of data set: EMSA. The settings on record: EMSA: 150 mM NaCl, 20 mM Tris pH 7.0, 2 mM TCEP, 1 mM MgCl2, 0.6 ug yeast tRNAPhe per 20 ul, 15 min, temperature not stated, gel in 1x TB.

The test system of data set [3] is Roquin-1 N-term A-site mutant (Amut) (mouse). The data set is described as follows: EMSA. Particulars: EMSA: 150 mM NaCl, 20 mM Tris pH 7.0, 2 mM TCEP, 1 mM MgCl2, 0.6 ug yeast tRNAPhe per 20 ul, 15 min; temperature not stated; gel in 1x TB.
The subject of the next data set is Roquin-1 N-term (mouse). Kind of data set: EMSA. The settings on record: first binding event; EMSA: 150 mM NaCl, 20 mM Tris pH 7.0, 2 mM TCEP, 1 mM MgCl2, 0.6 ug yeast tRNAPhe per 20 ul, 15 min; temperature not stated; gel in 1x TB.
The target in data set [4] is T2, Roquin-1 extROQ. Kind of data set: EMSA; two-step, comparable to WT ADE-CDE; EMSA: 150 mM NaCl, 20 mM Tris pH 7.0, 2 mM TCEP, 1 mM MgCl2, 0.6 ug yeast tRNAPhe per 20 ul, 15 min; temperature not stated; gel in 1x TB. Particulars: protein: recombinant; tags: tag removed by TEV; label: 5' 32P; two hairpins.
Data set [5] deals with the molecule itself. Kind of data set: SAXS; protein alone, concentration series 50, 100, 200, 300 uM; 150 mM NaCl, 20 mM Tris pH 7.0, 2 mM TCEP; 293 K; molecular weight by the Bayesian approach; monomer to dimer.
In data set [6] the target is T2, Roquin-1 extROQ. The data set is described as follows: EMSA; single binding event; EMSA: 150 mM NaCl, 20 mM Tris pH 7.0, 2 mM TCEP, 1 mM MgCl2, 0.6 ug yeast tRNAPhe per 20 ul, 15 min; temperature not stated; gel in 1x TB. Particulars: protein: recombinant, tags: tag removed by TEV, label: 5' 32P.
Data set [7] concerns the target T1, Roquin-1 coreROQ. Kind of data set: EMSA; triplicate; EMSA: 150 mM NaCl, 20 mM Tris pH 7.0, 2 mM TCEP, 1 mM MgCl2, 0.6 ug yeast tRNAPhe per 20 ul, 15 min; temperature not stated; gel in 1x TB. The settings on record: protein: recombinant; tags: tag removed by TEV; label: 5' 32P (EMSA); hairpin, apical hexaloop.
In data set [8] the target is T2, Roquin-1 extROQ. The data set is described as above. Particulars: protein: recombinant; tags: tag removed by TEV; label: 5' 32P (EMSA); hairpin, apical hexaloop.
The target of data set [9] is T2, Roquin-1 extROQ. Kind of data set: EMSA; 2:1 stoichiometry; EMSA: 150 mM NaCl, 20 mM Tris pH 7.0, 2 mM TCEP, 1 mM MgCl2, 0.6 ug yeast tRNAPhe per 20 ul, 15 min; temperature not stated; gel in 1x TB. Particulars: protein: recombinant; tags: tag removed by TEV; label: 5' 32P (EMSA).

Usually Kd stands for the free concentration of one partner at which half of the binding sites on the other are occupied at equilibrium, for simple one-to-one binding. Regarding Ox40 CDE, the Kd in the data set with Roquin-1 coreROQ [1] (triplicate) turned out to be 460 nM; with Roquin-1 extROQ [2] (triplicate) it was 149 nM. Ox40 tandem ADE-CDE: the Kd worked out at 593 nM in data set [3]; 78 nM in the data set with Roquin-1 N-term (mouse); 379 nM with Roquin-1 coreROQ [1] (transitions not resolved); 59 nM with Roquin-1 extROQ [2] (first binding event); 180 nM in the data set with Roquin-1 extROQ [2] (second binding event).

B1: ADE-u-CDE (structured_RNA)
RNA: GCCUGCCAGUACCCUCCACACCGUUCUAGGUGCUGGGCUGGCUCUGGGCUGUAUGCUAUGCAUACUAC
On to B1, for which the binding result with Roquin-1 extROQ [4] was “binds”.

B2: Roquin-1 amino-terminal part (N-term, residues 1-454) (domain or fragment, murine, UniProt Q4VGL6 1-454, looked up)
chain: MPVQAPQWTDFLSCPICTQTFDETIRKPISLGCGHTVCKMCLNKLHRKACPFDQTTINTDIELLPVNSALLQLVGAQIPEQQPITLCSGVEDTKHYEEAKKCVEELALYLKPLSSARGVGLNSTTQSVLSRPMQRKLVTLVHCQLVEEEGRIRAMRAARSLGERTVTELILQHQNPQQLSSNLWAAVRARGCQFLGPAMQEEALKLVLLALEDGSALSRKVLVLFVVQRLEPRFPQASKTSIGHVVQLLYRASCFKVTKRDEDSSLMQLKEEFRTYEALRREHDSQIVQIAMEAGLRIAPDQWSSLLYGDQSHKSHMQSIIDKLQTPASFAQSVQELTIALQRTGDPANLNRLRPHLELLANIDPSPDAPPPTWEQLENGLVAVRTVVHGLVDYIQNHSKKGADQQQPPQHSKYKTYMCRDMKQRGGCPRGASCTFAHSQEELEKFRKMNKRLV
notes: Roquin-1, murine, structured amino-terminal part with RING, ROQ and ZnF domains, residues 1-454 (theoretical MW 51.09 kDa); also called Roquin N-term; WT N-term; source: E. coli BL21 (DE3), expressed with 100 uM ZnCl2, purified (Ni-NTA, TEV cleavage, reverse Ni-NTA, SEC)
In the case of B2, in data set [5], the binding result is “binds”.

B3: Bulge-CDE (structured_RNA)
RNA: GGAUUUUAUGGGGCACGGACAACCCAUAUCCUGAUUUUCCUAUGUAUGCUAUGCAUACUAC
As for B3, the Kd with Roquin-1 extROQ [6] is roughly 70.7 nM.

Consider GCCUGCCAGUACCCUCCACACCGUUCUAGGUGCUGGGCUGGCUCUGGGC (structured_RNA) [Ox40 ADE], for which the Kd is 232 ± 29 nM with Roquin-1 coreROQ [7] and 171 ± 17 nM in the data set with Roquin-1 extROQ [8].

B4: Ox40 full-length 3'UTR (structured_RNA)
RNA: GCAUUACUACAGGAGUGGAUUUUAUGGGGCACGGACAACCCAUAUCCUGAUGCCUGCCAGUACCCUCCACACCGUUCUAGGUGCUGGGCUGGCUCUGGGCUUUCCUAUGUAUGCUAUGCAUACUACCUGCCUGGUGGUGCUCCUAAUAAACAUGCUA
On to B4, for which the Kd with Roquin-1 extROQ [9] stood at 63 ± 9 nM. As for GUAUUUAUGAUUUCCUAUGUAUGCUAUGCAUACUAC (structured_RNA) [extCDE], the Kd with Roquin-1 extROQ [6] (5' single strand plus hairpin) is roughly 50 nM.
